Patent publication US12037395 (IMMVIRA, dated 2024)

What was measured:
[1] = biological target: T1, biotin-labeled human PD-1 Fc protein (human, biotin-labeled (sites not given)); experiment: capture ELISA: antibody captured by anti-IgG Fc, biotin PD-1-Fc 60 nM
T1 construct: also called PD-1-Fc-biotin

[2] = biological target: T2, human PD-1 on PD-1 Effector Cell Line (Genscript, GS-J2/PD-1) (human, UniProt Q15116 25-288); experiment: cell-based or functional assay
[3] = biological target: T3, cynomolgus monkey PD-1-his protein (Acro biosystems, #PD-1-C5223) (cynomolgus monkey, UniProt B0LAJ3 25-170); experiment: SPR (Biacore T200), antibody captured, antigen flowed
T3 construct: Bought protein; also called Cynomolgus PD-1; Cynomolgus PD1
Excerpt: (§1) Briefly, goat […] (GE healthcare, Cat #BR100839, Human Antibody Capture Kit) was covalently linked to a CM5 chip (carboxy methyl dextran coated chip) via primary amines, using a standard amine coupling kit (GE healthcare, Pittsburgh, PA, USA) provided by Biacore. Unreacted moieties on the biosensor surface were blocked with ethanolamine. […] Then, recombinant human PD-1-his (Sino biological, #10377-H08H) or cynomolgus monkey PD-1-his protein (Acro biosystems, #PD-1-C5223) in HBS EP buffer (provided by Biacore) was flowed onto the chip at a flow rate of 30 μL/min. The antigen-antibody association kinetics was followed for 2 minutes and the dissociation kinetics was followed for 10 minutes. The association and dissociation curves were fit to a 1:1 *Langmuir* binding model using BIA evaluation software.

[4] = biological target: T4, recombinant human PD-1-his (Sino biological, #10377-H08H) (human, UniProt Q15116 25-167); experiment: as above
T4 construct: Bought protein; also called Human PD-1-his protein; not shown: his tag
Excerpt: as §1

[5] = biological target: T1, biotin-labeled human PD-1 Fc protein; experiment: competition ELISA: blocks biotin PD-1-Fc binding to coated PD-L1-Fc
Method: (§2) The next day, plates were washed with wash buffer (PBS+0.05% Tween-20, PBST), and blocked with 5% non-fatty milk in PBST for 2 hours at 37° C. Plates were then washed again using wash buffer.
(§3) After incubation at 37° C. for 40 minutes, plates were washed for 4 times using wash buffer. […] Plates were washed again using wash buffer. Finally, TMB was added and the reaction was stopped using 1M H_2SO_4, and the absorbance was read at 450 nm. Data were analyzed using Graphpad Prism software and $IC50$ values were reported.

[6] = biological target: T1, biotin-labeled human PD-1 Fc protein; experiment: competition ELISA: blocks biotin PD-1-Fc binding to coated Nivolumab (competitor); partial blocking
Method: (§4) The next day, plates were washed with wash buffer, and blocked with 5% non-fatty milk in PBST for 2 hours at 37° C. […] Plates were finally washed using wash buffer. TMB was added and the reaction was stopped using 1M H_2SO_4, and the absorbance was read at 450 nm. Data were analyzed using Graphpad Prism software and $IC50$ values were reported.

[7] = biological target: T1, biotin-labeled human PD-1 Fc protein; experiment: benchmark blocking ELISA (coated Nivolumab, self-competition)
[8] = biological target: T1, biotin-labeled human PD-1 Fc protein; experiment: as above; remark: listed apart in the source
[9] = biological target: T1, biotin-labeled human PD-1 Fc protein; experiment: competition ELISA: blocks biotin PD-1-Fc binding to coated Nivolumab (self-competition)
[10] = biological target: T1, biotin-labeled human PD-1 Fc protein; experiment: binding capture ELISA, biotin PD-1-Fc
[11] = biological target: T1, biotin-labeled human PD-1 Fc protein; experiment: PD1/PDL1 ligand blocking ELISA (coated PD-L1-Fc)
Method: as §2, §3

[12] = biological target: T1, biotin-labeled human PD-1 Fc protein; experiment: PD1/PDL1 ligand blocking ELISA (coated PD-L1-Fc); remark: listed apart in the source
[13] = biological target: T1, biotin-labeled human PD-1 Fc protein; experiment: capture binding ELISA, biotin PD-1-Fc
[14] = biological target: T4, recombinant human PD-1-his (Sino …); experiment: SPR (Biacore) as in Example 2
[15] = biological target: T3, cynomolgus monkey PD-1-his protein …; experiment: SPR (Biacore)
[16] = biological target: T4, recombinant human PD-1-his (Sino …); experiment: SPR (Biacore)
[17] = biological target: T1, biotin-labeled human PD-1 Fc protein; experiment: benchmark blocking ELISA (coated Nivolumab as competitor)
Method: as §4

[18] = biological target: T1, biotin-labeled human PD-1 Fc protein; experiment: binding capture ELISA (goat anti-human IgG Fab capture), biotin PD-1-Fc
[19] = biological target: T2, human PD-1 on PD-1 Effector Cell Line …; experiment: cell-based or functional assay; remark: listed apart in the source

B1: mouse anti-PD-1 monoclonal antibody 2G2 (antibody, mouse IgG1, kappa, V domains shown)
VH: EVQLVESGGDLVKPGGSLKLSCTASGFTFSYYGMSWVRQTPDKRLEWVATISSGSSFTYSPDSVKGRFTISRDNAKNTLYLQMNSLKSEDTAIYYCTRREGIYDASWDYSMDYWGQGTSVTVSS
VL: DVLMTQTPLSLPVSLGDQASISCRSSQSIIRSNGNTYLEWYLQKPGQSPKLLIYKVSNRFSGVPDRFSGSGSGTDFTLKISRVEADDLGLYYCFQGSHVPWTFGGGTKLEIKR
notes: Purified from hybridoma; Constant regions tied only generically to 'mouse antibodies'; also called Clone 2G2
In the case of B1, the EC50 [1] is reported as 0.18 nM, the “Reporter Activation (EC50, nM) human PD-1 cell (NFAT-luc)/human PD-L1 cell” value [2] is reported as 17.9 nM and the Kd [3] is reported as 13 nM. For the same binder, the koff [3] was 0.00183 s⁻¹, the kon [3] was 140000 M⁻¹ s⁻¹ and the Kd [4] was 2.68 nM. For the same binder, the koff [4] was 0.000436 s⁻¹, the kon [4] was 163000 M⁻¹ s⁻¹ and the IC50 [5] was 0.32 nM. The IC50 [6] was 14.4 nM.

B2: Nivolumab (OPDIVO®) (antibody, V domains shown)
VH: QVQLVESGGGVVQPGRSLRLDCKASGITFSNSGMHWVRQAPGKGLEWVAVIWYDGSKRYYADSVKGRFTISRDNSKNTLFLQMNSLRAEDTAVYYCATNDDYWGQGTLVTVSS
VL: EIVLTQSPATLSLSPGERATLSCRASQSVSSYLAWYQQKPGQAPRLLIYDASNRATGIPARFSGSGSGTDFTLTISSLEPEDFAVYYCQQSSNWPRTFGQGTKVEIK
An IC50 [7] of 0.38 nM, an EC50 [1] of 0.21 nM and an IC50 [8] of 0.38 nM were found for B2 in this work. For the same binder, the IC50 [9] was 3.79 nM, the EC50 [10] was 0.37 nM and the IC50 [11] was 0.41 nM. The IC50 [12] was 0.41 nM and the EC50 [13] was 0.37 nM.

B3: humanized anti-PD-1 antibody huC1E1-V1 (antibody, human IgG1, kappa)
heavy: not shown
light: EIVLTQSPATLSLSPGERATLSCRASKSVDDSGISFMHWFQQKPGQPPRLLIYAASNQGSGVPARFSGSGSGTDFTLTISSLEPEDFAVYFCHQTKEVPWTFGQGTKVEIKRTVAAPSVFIFPPSDEQLKSGTASVVCLLNNFYPREAKVQWKVDNALQSGNSQESVTEQDSKDSTYSLSSTLTLSKADYEKHKVYACEVTHQGLSSPVTKSFNRGEC
notes: Human IgG1/kappa, expressed in 293F cells
A Kd [14] of 3.88 nM was found for B3 in this work.

B4: humanized anti-PD-1 antibody huC1E1-V4 (antibody, human IgG1, kappa, V domains shown)
VH: EVQLVESGGGVVQPGRSLRLSCAASGFTFSSYLMSWVRQAPGKGLEWVATISGGGGDTYFPDSVKGRFTISRDNSKNTLYLQMNSLRAEDTAVYYCVRFGGAGYYWYFDVWGAGTLVTVSS
VL: EIVLTQSPATLSLSPGERATLSCRASKSVDDSGISFMHWFQQKPGQAPRLLIYAASNQGSGVPARFSGSGSGTDFTLTISSLEPEDFAVYFCHQTKEVPWTFGQGTKVEIKR
notes: as for B3
A Kd [14] of 2.95 nM was found for B4 in this work.

B5: humanized anti-PD-1 antibody huC1E1-V5 (antibody, human IgG1, kappa, V domains shown)
VH: EVQLVESGGGVVQPGRSLRLSCAASGFTFSSYLMSWVRQAPGKGLEWVATISGGGGDTYFPDSVKGRFTISRDNSKNTLYLQMNSLRAEDTAVYYCVRFGGAGYYWYFDVWGAGTLVTVSS
VL: EIVLTQSPATLSLSPGERATLSCRASKSVDDSGISFMHWFQQKPGQPPRLLIYAASNQGSGIPARFSGSGSGTDFTLTISSLEPEDFAVYFCHQTKEVPWTFGQGTKVEIKR
notes: as for B3
A Kd [14] of 3.37 nM was found for B5 in this work.

B6: humanized anti-PD-1 antibody huC1E1-V10 (antibody, human IgG1, kappa)
heavy: not shown
light: EIVLTQSPATLSLSPGERATLSCRASKSVDDSGISFMHWYQQKPGQAPRLLIYAASNQGSGIPARFSGSGSGTDFTLTISSLEPEDFAVYYCHQTKEVPWTFGQGTKVEIKRTVAAPSVFIFPPSDEQLKSGTASVVCLLNNFYPREAKVQWKVDNALQSGNSQESVTEQDSKDSTYSLSSTLTLSKADYEKHKVYACEVTHQGLSSPVTKSFNRGEC
notes: as for B3
A Kd [14] of 0.968 nM, an EC50 [10] of 0.34 nM and a Kd [15] of 0.892 nM were found for B6 in this work. The Kd [16] was 0.968 nM, the IC50 [12] was 0.88 nM and the IC50 [17] was 0.35 nM. The EC50 [18] was 0.44 nM and the “Cell-based reporter assay (EC50, nM)” value [19] was 11.3 nM.

B7: humanized anti-PD-1 antibody huC1E1-V3 (antibody, human IgG1, kappa, V domains shown)
VH: EVQLVESGGGVVQPGRSLRLSCAASGFTFSSYLMSWVRQAPGKGLEWVATISGGGGDTYFPDSVKGRFTISRDNSKNTLYLQMNSLRAEDTAVYYCVRFGGAGYYWYFDVWGAGTLVTVSS
VL: EIVLTQSPATLSLSPGERATLSCRASKSVDDSGISFMHWYQQKPGQPPRLLIYAASNQGSGVPARFSGSGSGTDFTLTISSLEPEDFAVYFCHQTKEVPWTFGQGTKVEIKR
notes: as for B3
A Kd [14] of 4.52 nM was found for B7 in this work.

B8: humanized anti-PD-1 antibody huC1E1-V2 (antibody, human IgG1, kappa)
heavy: not shown
light: EIVLTQSPATLSLSPGERATLSCRASKSVDDSGISFMHWFQQKPGQPPRLLIYAASNQGSGVPARFSGSGSGTDFTLTISSLEPEDFAVYFCHQTKEVPWTFGQGTKVEIKRTVAAPSVFIFPPSDEQLKSGTASVVCLLNNFYPREAKVQWKVDNALQSGNSQESVTEQDSKDSTYSLSSTLTLSKADYEKHKVYACEVTHQGLSSPVTKSFNRGEC
notes: as for B3
A Kd [14] of 2.49 nM was found for B8 in this work.

B9: humanized anti-PD-1 antibody huC1E1-V7 (antibody, human IgG1, kappa)
heavy: not shown
light: EIVLTQSPATLSLSPGERATLSCRASKSVDDSGISFMHWYQQKPGQAPRLLIYAASNQGSGIPARFSGSGSGTDFTLTISSLEPEDFAVYYCHQTKEVPWTFGQGTKVEIKRTVAAPSVFIFPPSDEQLKSGTASVVCLLNNFYPREAKVQWKVDNALQSGNSQESVTEQDSKDSTYSLSSTLTLSKADYEKHKVYACEVTHQGLSSPVTKSFNRGEC
notes: as for B3
A Kd [14] of 6.36 nM was found for B9 in this work.

B10: humanized anti-PD-1 antibody huC1E1-V6 (antibody, human IgG1, kappa, V domains shown)
VH: EVQLVESGGGVVQPGRSLRLSCAASGFTFSSYLMSWVRQAPGKGLEWVATISGGGGDTYFPDSVKGRFTISRDNSKNTLYLQMNSLRAEDTAVYYCVRFGGAGYYWYFDVWGAGTLVTVSS
VL: EIVLTQSPATLSLSPGERATLSCRASKSVDDSGISFMHWFQQKPGQPPRLLIYAASNQGSGVPARFSGSGSGTDFTLTISSLEPEDFAVYYCHQTKEVPWTFGQGTKVEIKR
notes: as for B3
A Kd [14] of 3.05 nM was found for B10 in this work.
